Read-outs that look alike come from different tables or passages of the source. * marks the point of attachment. Palmitoyl = CCCCCCCCCCCCCCCC(=O)*
Experiments:
PTHR1 [1] = target: T1, PTHR1 (Rattus norvegicus, UniProt P25961)
T1 sequence (P25961 27-591): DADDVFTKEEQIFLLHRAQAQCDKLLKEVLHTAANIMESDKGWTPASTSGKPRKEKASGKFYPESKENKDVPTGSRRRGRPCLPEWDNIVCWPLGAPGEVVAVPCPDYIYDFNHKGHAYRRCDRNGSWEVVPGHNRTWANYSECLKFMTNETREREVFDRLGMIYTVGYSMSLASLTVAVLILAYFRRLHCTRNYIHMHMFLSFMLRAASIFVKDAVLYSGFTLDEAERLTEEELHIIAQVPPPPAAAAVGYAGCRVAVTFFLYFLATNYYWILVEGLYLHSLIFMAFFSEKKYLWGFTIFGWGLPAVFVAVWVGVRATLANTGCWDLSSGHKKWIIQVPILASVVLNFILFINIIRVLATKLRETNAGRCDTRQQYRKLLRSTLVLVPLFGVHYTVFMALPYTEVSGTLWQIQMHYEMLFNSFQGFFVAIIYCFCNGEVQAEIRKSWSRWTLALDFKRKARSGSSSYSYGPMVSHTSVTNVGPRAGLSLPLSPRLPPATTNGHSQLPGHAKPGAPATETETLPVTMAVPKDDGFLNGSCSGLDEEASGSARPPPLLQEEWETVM
Description: (§1) cAMP Screening Assay Using DiscoveRX XS+ Kit
(§2) UMR-106 cells were seeded in 96-well white plates at 10K cells/well in growth media. Twenty four hours after seeding, cell media was removed by gentle dumping and replaced with 30 μL of compounds diluted to 10 μM final concentration in assay buffer (Hank's balanced Salt Solution, 20 mM HEPES, pH 7.4, 0.1 μM IBMX). After 30 minute incubation at room temperature, 10 μL human PTH1-34 serial diluted in assay buffer was added. Cells were incubated at 37° C. for 15 minutes before 10 μL of water soluble analog of forskolin, NKH477 was added to final concentration of 10 μM followed by 60 minute incubation at room temperature. DiscoveRX cAMP XS+ kit reagents were then added following manufacture protocol. Briefly, 10 μL of antibody was added to each well followed by 40 μL of ED/Lysis buffer mix (1/5/19 for Galacon-star/Emerald/Lysis buffer and then 1:1 with ED). After 1 hour incubation, 40 μL of EA reagent was added followed by at least 1 hour incubation before the plates were read on TopCount reader. Data was analyzed using GraphPad Prism. PTH1-34 dose-response curves were fitted using non-linear curve fit (Y=Bottom+(Top−Bottom)/(1+10̂((Log EC50−X)*HillSlope))). PTH1-34 EC50 values calculated in the presence of compounds were compared to that in the presence of vehicle control. The ratio of the EC50 values were calculated and presented as fold shift (EC50 compound/EC50 vehicle). The effect of compounds on PTH1-34 stimulated maximal response was also assessed and was presented percent inhibition (1−(Emax compound/Emax vehicle)).

PTHR1 [2] = target: T1, PTHR1; experiment: cAMP screening assay using DiscoveRX XS+ kit (PTH1-34 dose-response in UMR-106 cells); details: compound 10 μM; for Inhibition of Maximal Response: PTH1-34 stimulated maximal response, 1−(Emax compound/Emax vehicle); for Fold Shift of EC50: PTH1-34 EC50 compound/EC50 vehicle
Description: as §1, §2

| Substance | Inhibition of Maximal Response (PTHR1 [2]) [%] | Fold Shift of EC50 (PTHR1 [1]) | Fold Shift of EC50 (PTHR1 [2]) |
| --- | --- | --- | --- |
| GGYFRRLHSTRNYIH [Compound 13] | 29.20 | 0.7 |  |
| RQQYRKLLKSTL [Compound 57] | −38.80 | 15.6 |  |
| NIVRVLATKLRETNAGRSD [Compound 44] | −8.30 | 2 |  |
| RETNAGRSDTRQQYRKLLKS [Compound 51] |  | 12.45 |  |
| RETNAGRSDTRQQY [Compound 62] | −5.40 | 1.1 |  |
| LAYFRRLHSTRN [Compound 14] | 15.20 | 0.7 |  |
| TNAGRSDTRQQYRKLLKS [Compound 64] | −0.10 | 7 |  |
| YLHSLIFMAFFSEKKYLWGFT [Compound 35] | 24.50 | 1.1 |  |
| HSLIFMAFFSEKKYLWGFT [Compound 36] | 5.90 | 1.2 |  |
| Pal-NGEVQAEIKKSWSRWTLALD-amide (Palmitoyl-NGEVQAEIKKSWSRWTLALD-NH2; SMILES CCCCCCCCCCCCCCCC(=O)N[C@@H](CC(N)=O)C(=O)NCC(=O)N[C@@H](CCC(=O)O)C(=O)N[C@H](C(=O)N[C@@H](CCC(N)=O)C(=O)N[C@@H](C)C(=O)N[C@@H](CCC(=O)O)C(=O)N[C@H](C(=O)N[C@@H](CCCCN)C(=O)N[C@@H](CCCCN)C(=O)N[C@@H](CO)C(=O)N[C@@H](Cc1c[nH]c2ccccc12)C(=O)N[C@@H](CO)C(=O)N[C@@H](CCCNC(=N)N)C(=O)N[C@@H](Cc1c[nH]c2ccccc12)C(=O)N[C@H](C(=O)N[C@@H](CC(C)C)C(=O)N[C@@H](C)C(=O)N[C@@H](CC(C)C)C(=O)N[C@@H](CC(=O)O)C(N)=O)[C@@H](C)O)[C@@H](C)CC)C(C)C) [Compound 105] | 34.00 | 1.1 |  |
| RRLHSTRNYIHMHL [Compound 16] |  | 2.45 |  |
| AYFRRLHSTRNYIH [Compound 7] | 36.00 | 1.2 |  |
| LYLHSLIFMAFFSEKKYLWGFT [Compound 34] | 4.20 |  | 1.2 |
| AGRSDTRQQYRKLLKS [Compound 65] |  | 14.65 |  |
| LHSLIFMAFFSEKKYLWGFT [Compound 37] | 35.60 | 1.1 |  |
| SSYFRRLHSTRNYIH [Compound 12] | 26.60 |  | 0.9 |
| SGRRLHSTRNYIHMH [Compound 17] | 39.40 | 2.8 |  |
| KLRETNAGRSDTRQQY [Compound 53] | 6.40 | 2.1 |  |

More lines, main results first:

| Inhibition of Maximal Response (PTHR1 [2]) [%] | Substance | Fold Shift of EC50 (PTHR1 [1]) | Fold Shift of EC50 (PTHR1 [2]) |
| --- | --- | --- | --- |
| 12.60 | RVLATKLRETNAGR [Compound 75] | 1.1 |  |
| 6.90 | DTRQQYRKLLKS [Compound 67] | 6 |  |
| 26.80 | SRWTLALDFKRKAR [Compound 104] | 1.2 |  |
| −20.80 | TNAGRSDTRAQYRKLL [Compound 81] |  | 13.8 |
| −25.00 | TNAGRSDTRQQYRKLA [Compound 88] | 2.8 |  |
| 25.30 | NGEVQAEIKKSWSRWT [Compound 101] | 1.2 |  |
| −20.40 | TNAGRSDTRQQYRKAL [Compound 89] |  | 2.3 |
| 22.20 | SGRVLATKLRETNAGR [Compound 74] | 1.9 |  |
| 37.20 | KKSWSRWTLALDFKRKAR [Compound 97] | 4.7 |  |
| 9.90 | TNAGRADTRQQYRKLL [Compound 77] | 6.9 |  |
| 2.50 | TNAGRSDTRQQYRK [Compound 69] | 5.2 |  |
| 13.50 | SGRVLATKLR [Compound 71] | 0.8 |  |
| −29.20 | TNAGRSDTAQQYRKLL [Compound 78] |  | 12.7 |

Source: patent publication US20110294738A1, “PTHR1 RECEPTOR COMPOUNDS” (priority 2008, published 2011)
